We go through two molecules from paper PMC3958441, “Isl1 and Pou4f2 Form a Complex to Regulate Target Genes in Developing Retinal Ganglion Cells” (PLoS ONE, 2014).

What all share (assay): EMSA; EMSA: 20 mM Tris-HCl pH 7.5, 50 mM NaCl, 10 mM DTT, 1 mM EDTA, 5% glycerol, 200 ng dI/dC, 200 ng each protein in 20 ul, 4 C, 30 min; 8% PAGE, 1x TBE, 4 C
For data set [1], the target named is T1, Isl1D4 (mouse, UniProt P61372 146-349).
T1 sequence: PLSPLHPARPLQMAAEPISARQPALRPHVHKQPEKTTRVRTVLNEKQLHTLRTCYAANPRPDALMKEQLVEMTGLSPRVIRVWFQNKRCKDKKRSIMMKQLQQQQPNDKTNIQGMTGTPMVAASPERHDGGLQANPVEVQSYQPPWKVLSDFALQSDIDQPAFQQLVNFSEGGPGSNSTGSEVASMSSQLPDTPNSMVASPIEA
The settings on record: protein: recombinant; tags: His (C-terminal); (radiolabel, Klenow fill-in); 5' overhang 1 nt at both ends before fill-in.

Data set [2] has as its target T2, Isl1D1 (mouse, UniProt P61372 1-181).
T2 sequence: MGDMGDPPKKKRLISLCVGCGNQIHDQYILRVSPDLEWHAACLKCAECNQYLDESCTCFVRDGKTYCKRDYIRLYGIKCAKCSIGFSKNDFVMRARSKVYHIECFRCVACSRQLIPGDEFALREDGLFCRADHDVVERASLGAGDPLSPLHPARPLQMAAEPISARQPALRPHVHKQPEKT
The settings on record: protein: recombinant; tags: His (C-terminal); (radiolabel, Klenow fill-in); 5' overhang 1 nt at both ends before fill-in.

The target of data set [3] is T3, Isl1 (mouse, UniProt P61372 1-349).
T3 sequence: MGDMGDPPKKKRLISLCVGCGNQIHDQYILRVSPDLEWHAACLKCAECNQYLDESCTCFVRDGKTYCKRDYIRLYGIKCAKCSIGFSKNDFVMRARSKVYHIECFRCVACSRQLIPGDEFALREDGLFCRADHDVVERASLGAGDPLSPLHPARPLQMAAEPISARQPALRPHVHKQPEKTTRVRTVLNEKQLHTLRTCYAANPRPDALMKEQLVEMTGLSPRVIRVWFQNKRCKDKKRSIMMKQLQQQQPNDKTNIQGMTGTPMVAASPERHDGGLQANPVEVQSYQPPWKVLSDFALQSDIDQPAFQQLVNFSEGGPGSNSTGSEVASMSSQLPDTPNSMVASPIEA
The settings on record: protein: recombinant; tags: His (C-terminal, pET-28a); (radiolabel, Klenow fill-in); 5' overhang 1 nt at both ends before fill-in.

In data set [4] the target is T4, Pou4f2 (Brn3b) (mouse, UniProt Q63934 1-411).
T4 sequence: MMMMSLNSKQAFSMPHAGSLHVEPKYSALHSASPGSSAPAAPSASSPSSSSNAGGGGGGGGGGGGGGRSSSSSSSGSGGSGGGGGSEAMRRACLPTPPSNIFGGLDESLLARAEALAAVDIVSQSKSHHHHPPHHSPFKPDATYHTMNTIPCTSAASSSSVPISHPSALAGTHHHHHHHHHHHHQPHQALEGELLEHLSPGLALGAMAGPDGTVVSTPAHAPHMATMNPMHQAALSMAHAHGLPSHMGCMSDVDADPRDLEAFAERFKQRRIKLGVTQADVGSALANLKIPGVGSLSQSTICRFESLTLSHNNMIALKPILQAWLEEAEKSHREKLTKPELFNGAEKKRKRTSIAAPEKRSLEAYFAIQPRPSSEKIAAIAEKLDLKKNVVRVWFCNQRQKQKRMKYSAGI
As to conditions: protein: recombinant; tags: His (C-terminal, pET-28a); (radiolabel, Klenow fill-in); 5' overhang 1 nt at both ends before fill-in.

Data set [5] has as its target T5, Pou4f2D1 (mouse, UniProt Q63934 1-260).
T5 sequence: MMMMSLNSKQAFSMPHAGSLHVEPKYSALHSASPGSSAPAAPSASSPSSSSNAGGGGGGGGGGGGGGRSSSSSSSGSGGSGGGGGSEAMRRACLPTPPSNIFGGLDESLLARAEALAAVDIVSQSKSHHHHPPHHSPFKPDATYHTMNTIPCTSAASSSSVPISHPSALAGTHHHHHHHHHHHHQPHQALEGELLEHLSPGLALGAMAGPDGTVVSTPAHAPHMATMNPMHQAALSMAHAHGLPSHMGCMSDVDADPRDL
The settings on record: protein: recombinant; tags: His (C-terminal); (radiolabel, Klenow fill-in); 5' overhang 1 nt at both ends before fill-in.

B1: SBRN3(W) (dsDNA)
DNA 1: GCACACGACCCAATGAATTAATAACCGGGCTG
DNA 2: GCAGCCCGGTTATTAATTCATTGGGTCGTGTG
Consider B1, for which the binding result in data set [1] is given as “binds”; in data set [2], “no binding”; in data set [3], “binds”; in data set [4], “binds”; in data set [5], “no binding”.

B2: CBRN3(W) (dsDNA)
DNA 1: GATCTCTCCTGCATAATTAATTACCCCCGGAT
DNA 2: GATCCGGGGGTAATTAATTATGCAGGAGAGAT
In the case of B2, the binding result is reported as “binds” in data set [1]; “no binding” in data set [2]; “binds” in data set [3]; “binds” in data set [4]; “no binding” in data set [5].
